Assay [1] has as its target recombinant purified neutrophil adhesion inhibitor NIF (rNIF) of the hookworm Ancylostoma caninum (Ancylostoma caninum). As to the kind of experiment: flow cytometry on cells. Background: In flow cytometry, cells or beads pass a laser one at a time.
Assay [2] has the same target. As to the kind of experiment: ELISA. In general terms: An ELISA detects its analyte on a solid surface through an enzyme-linked reagent.

As for “recombinant CD11b A-domain (r11bA), wild type (domain or fragment)”, the 50% inhibitory concentration (IC50) in assay [1] and in assay [2] was 1 nM throughout.

What is called IC50 is the midpoint of a concentration-inhibition curve.
